According to patent US20040229290A1 (priority 2003, published 2004):
Residue numbers refer to the chain shown, from its start. Where two headings read alike, the source gives them in different places.

What was measured:
[1] = read-out: KM (μM), second group; cited from earlier work
[2] = read-out: DHAP → GAP KM; cited from earlier work
NovoTim1.0 = type: biochemical
wild-type TIM = wild-type TIM (Homo sapiens, UniProt P60174); conditions: cited from earlier work
[3] = type: physicochemical; conditions: pH 7
[4] = type: binding; conditions: read-out: K1 (μM) D-lac
[5] = type: binding; conditions: read-out: K1 (μM) L-lac
[6] = type: binding; conditions: read-out: K1 (μM) Pyr
[7] = read-out: affinities of wild-type receptors for cognate ligands; cited from earlier work

Chain of wild-type TIM (P60174 whole entry): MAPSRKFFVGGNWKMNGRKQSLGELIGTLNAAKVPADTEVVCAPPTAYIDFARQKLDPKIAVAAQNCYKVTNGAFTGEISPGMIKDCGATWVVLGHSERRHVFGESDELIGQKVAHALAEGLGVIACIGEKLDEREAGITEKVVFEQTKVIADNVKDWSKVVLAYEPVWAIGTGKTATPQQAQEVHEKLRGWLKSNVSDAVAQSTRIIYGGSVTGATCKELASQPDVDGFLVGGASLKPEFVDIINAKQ

## triose phosphate isomerase [wtTIM]
[1]
  Km: 390 µM
[2]
  Km: 1600 µM

## O=C(O)COP(=O)(O)O [phosphoglycolate]
NovoTim1.0
  Ki: 130 µM
wild-type TIM
  Ki: 4 µM

B1: arabinose-binding protein (protein, UniProt P02924 24-329, looked up)
L-arabinose-binding …: ENLKLGFLVKQPEEPWFQTEWKFADKAGKDLGFEVIKIAVPDGEKTLNAIDSLAASGAKGFVICTPDPKLGSAIVAKARGYDMKVIAVDDQFVNAKGKPMDTVPLVMMAATKIGERQGQELYKEMQKRGWDVKESAVMAITANELDTARRRTTGSMDALKAAGFPEKQIYQVPTKSNDIPGAFDAANSMLVQHPEVKHWLIVGMNDSTVLGGVRATEGQGFKAADIIGIGINGVDAVSELSKAQATGFYGSLLPSPDVHGYKSSEMLYNWVAKDVEPPKFTEVTDVVLITRDNFKEELEKKGLGGK
[3]
  Tm: 54 °C

B2: Lac.R1: RBP variant designed to bind L-lactate (protein)
chain: KDTIALVVSTLNVPARVSLKDGAQKEADKLGYNLVVLDSQNNPAKELANVQDLTVRGTKILLINPTDSDAVGNAVKMANQANIPVITLSSQATKGEVVSHIASDNVLGGKIAGDYIAKKAGEGAKVIELQGIAGTSKAREMGEGFQQAVAAHKFNVLASQPADKDRIKGLNVMQNLLTAHPDVQAVFAQIDEMALGALRALQTAGKSDVMVVGFSGTPDGEKAVNDGKLAATIATLPDQIGAKGVETADKVLKGEKVQAKYPVDLKLVVKQ
[4]
  Kd: 40 µM
[5]
  Kd: 7.4 µM
[6]
  Kd: 40 µM

B3: histidine-binding protein (protein, UniProt P0AEU0 23-260, looked up)
Histidine-binding periplasmic …: AIPQNIRIGTDPTYAPFESKNSQGELVGFDIDLAKELCKRINTQCTFVENPLDALIPSLKAKKIDAIMSSLSITEKRQQEIAFTDKLYAADSRLVVAKNSDIQPTVESLKGKRVGVLQGTTQETFGNEHWAPKGIEIVSYQGQDNIYSDLTAGRIDAAFQDEVAASEGFLKQPVGKDYKFGGPSVKDEKLFGVGTGMGLRKEDNELREALNKAFAEMRADGTYEKLAKKYFDFDVYGG
[3]
  Tm: 58 °C

B4: Lac.G2: GBP variant designed to bind L-lactate (protein)
chain: ADTRIGVTIKKYDMNKMSVVRKAIEQDAKAAPDVQLLMNDSQNDQSKQNDQIDVLLAKGVKALAINLVDPAAAGTVIEKARGQNVPVVFFKLEPSRKALDSYDKAYYVGTDSKESGIIQGDLIAKHWAANQGWDLNKDGQIQFVLLKGEPGKPKAEAMTTYVIKELNDKGIKTEQLQLDTAMKDTAQAKDKMDAWLSGPNANKIEVVIANNDAMAMGAVEALKAHNKSSIPVFGVAALPEALALVKSGALAGTVLSDANNQAKATFDLAKNLADGKGAADGTNWKIDNKVVRVPYVGVDKDNLAEFSKK
[4]
  Kd: 55 µM
[3]
  Tm: 50 °C
[5]
  Kd: 2.1 µM
[6]
  Kd: 115 µM

B5: Lac.G1 (protein)
chain: B4 chain with M14K, K16F, K152M, K154H, M158K, S256D
[4]
  Kd: 205 µM
[5]
  Kd: 2.8 µM
[6]
  Kd: 255 µM

B6: ribose-binding protein (protein)
chain: KDTIALVVSTLNNPFFVSLKDGAQKEADKLGYNLVVLDSQNNPAKELANVQDLTVRGTKILLINPTDSDAVGNAVKMANQANIPVITLDRQATKGEVVSHIASDNVLGGKIAGDYIAKKAGEGAKVIELQGIAGTSAARERGEGFQQAVAAHKFNVLASQPADFDRIKGLNVMQNLLTAHPDVQAVFAQNDEMALGALRALQTAGKSDVMVVGFDGTPDGEKAVNDGKLAATIAQLPDQIGAKGVETADKVLKGEKVQAKYPVDLKLVVKQ
[3]
  Tm: 58 °C
[7]
  Kd: 0.2 µM

B7: glutamine-binding protein (protein, UniProt P0AEQ3 23-248, looked up)
Glutamine-binding periplasmic …: ADKKLVVATDTAFVPFEFKQGDKYVGFDVDLWAAIAKELKLDYELKPMDFSGIIPALQTKNVDLALAGITITDERKKAIDFSDGYYKSGLLVMVKANNNDVKSVKDLDGKVVAVKSGTGSVDYAKANIKTKDLRQFPNIDNAYMELGTNRADAVLHDTPNILYFIKTAGNGQFKAVGDSLEAQQYGIAFPKGSDELRDKVNGALKTLRENGTYNEIYKKWFGTEPK
[3]
  Tm: 62 °C
